Experimental data: patent publication US20110250668

Target: CBD-cohesin from C. thermocellum displayed on the yeast cell surface (CtCBDcoh yeast), P32781
Sequence (P32781 whole entry, looked up): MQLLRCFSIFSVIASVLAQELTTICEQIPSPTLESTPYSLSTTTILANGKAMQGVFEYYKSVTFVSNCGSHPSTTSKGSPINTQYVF

B1: Cel8A cellulase spliced to the Cel48S dockerin with aspartic acid substituted for the No. 18 and No. 50 asparagines, His-tagged (CtCBDcohCel8A48SdocN-D yeast) (protein)
chain: AGVPFNTKYPYGPTSIADNQSEVTAMLKAEWEDWKSKRITSNGAGGYKRVQRDASTNYDTVSEGMGYGLLLAVCFNEQALFDDLYRYVKSHFNGNGLMHWHIDANNNVTSHDGGDGAATDADEDIALALIFADKLWGSSGAINYGQEARTLINNLYNHCVEHGSYVLKPGDRWGGSSVTNPSYFAPAWYKVYAQYTGDTRWNQVADKCYQIVEEVKKYNNGTGLVPDWCTASGTPASGQSYDYKYDATRYGWRTAVDYSWFGDQRAKANCDMLTKFFARDGAKGIVDGYTIQGSKISNNHNASFIGPVAAASMTGYDLNFAKELYRETVAVKDSEYYGYYGNSLRLLTLLYITGNFPNPLSDLSGQPTPPSNPTPSLPPQVVYGPSSGTPSTKLYGDVNDDGKVDSTDAVALKRYVLRSGISINTDNADLNEDGRVDSTDLGILKRYILKEIDTLPYKN
Question: How did the CMC decomposition activity turn out when B1 was run?
Answer: The CMC decomposition activity was “CMC decomposition activity was increased by amino acid substitution (FIG. 11), indicating improved saccharification ability of the yeast”.
